In patent publication US11648290B2, “Cartilage-homing peptides” (FRED HUTCHINSON CANCER CENTER, priority 2015, dated 2023):

Legend:
cartilage [1] = details: for Cartilage (C): percentage of signal in the cartilage compared to the blood signal in the heart ventricle / Muscle (M): signal compared to the level in the blood: 3 hours after administration, ligated kidneys, 14C-labelled peptide, tail vein
Method: This example describes a dosing scheme for administering knottin peptides to mice in conjunction with kidney ligation. Different dosages of the peptides were administered to Female Harlan athymic nude mice, weighing 20 g-25 g, via tail vein injection (n=2 mice per knottin). The experiment was done in duplicates. The kidneys were ligated to prevent renal filtration of the peptides. Each peptide was radiolabeled by methylating lysines and the N-terminus, so the actual binding agent may contain methyl or dimethyl lysine(s) and a methylated or dimethylated amino terminus.
A target dosage of 50-100 nmol of each peptide carrying 10-25 uCi of ^14C was administered to Female Harlan athymic nude mice while anesthetized. Each peptide was allowed to freely circulate within the animal before the animals were euthanized and sectioned.
This example illustrates peptide homing to cartilage of mice with kidneys that were ligated prior to peptide administration. At the end of the dosing period in EXAMPLE 3, mice were frozen in a hexane/dry ice bath and then frozen in a block of carboxymethylcellulose. […] Thin, frozen sections of animal including imaging of tissues such as brain, tumor, liver, kidney, lung, heart, spleen, pancreas, muscle, adipose, gall bladder, upper gastrointestinal tract, lower gastrointestinal tract, bone, bone marrow, reproductive track, eye, cartilage, stomach, skin, spinal cord, bladder, salivary gland, and other types of tissues were obtained with a microtome, allowed to desiccate in a freezer, and exposed to phosphoimager plates for about ten days.
These plates were developed, and the signal (densitometry) from each organ was normalized to the signal found in the heart blood of each animal. A signal in tissue darker than the signal expected from blood in that tissue indicates peptide accumulation in a region, tissue, structure or cell. For instance, the cartilage is avascular and contains minute amounts of blood. A ratio of at least 170% signal in the cartilage versus heart ventricle was chosen as a reference level for significant targeting to cartilage, which also correlated with clear accumulation in cartilaginous tissues in the images of the slices.
The SEQ ID NO: 24 peptide was radiolabeled as in Example 3 and 100 nmol of peptide was injected into a mouse with intact kidneys. FIG. 5 illustrates the retention of and the tissue distribution in the cartilage of a peptide of SEQ ID NO: 24, 24 hours after administration.

[2] = Temperature stability of peptides (RP-HPLC); format: physicochemical
Method: This example illustrates peptide stability at high temperatures. Peptides were first suspended in 500 μl of ddH2O to a stock concentration of 2 mg/ml. Reactions were prepared by adding 6.25 μl of peptide from the stock solution with 95 μl ddH2O and incubated at room temperature, 70° C., or 100° C. for one hour in a Thermocycler. RP-HPLC was then run on samples using an Agilent 1260 HPLC equipped with a C-18 Poroshell 120B column. Sample were analyzed by a gradient method with a mobile phase of Solvent A (water with 0.1% TFA) and Solvent B (acetonitrile with 0.1% TFA). Solvent B was ramped up from 5%-45% of the mobile phase over a period of 10 minutes.
Peptides of SEQ ID NO: 28 and SEQ ID NO: 483 were analyzed by HPLC after incubation at room temperature (25° C.), 70° C., or 100° C. for one hour.

cartilage [3] = experiment: Cartilage homing, no method given; details: in vivo
[4] = system: cartilage (IVD, knee / synovial joints); experiment: Whole body autoradiography (WBA) of radiolabeled cartilage homing peptides (Example 21); format: in vivo, Female Harlan athymic nude mice; details: for Signal in the intervertebral disc (IVD), Average: percentage of blood
Method: This example illustrates peptide homing to cartilage mice 5 minutes to 48 hours after administration of a radiolabeled peptide. Signal from the radiolabeled peptides was found in all types of cartilage at each time point examined. Each peptide was radiolabeled by methylating […] as described in EXAMPLE 2. As such, the peptide may contain methyl or dimethyl lysines and a methylated or dimethylated amino terminus. A dose of 100 nmol radiolabeled peptide was administered via tail vein injection in Female Harlan athymic nude mice, weighing 20-25 g. The experiment was done in duplicate (n=2 animals per group). In some animals, kidneys were ligated to prevent renal filtration of the radiolabeled peptides and extend plasma half-life. Each radiolabeled peptide was allowed to freely circulate within the animal for the described time period before the animals were euthanized and sectioned.
Whole body autoradiography (WBA) sagittal sectioning was performed as follows. […] Sections were allowed to desiccate in a freezer prior to imaging.
For the autoradiography imaging, tape mounted thin sections were freeze dried and radioactive samples were exposed to phophoimager plates for 7 days.

[5] = 3 hr after 100 nmol radiolabeled peptide
[6] = 24 hr after 100 nmol radiolabeled peptide

Row | Substance | Cartilage (C): percentage of signal in the cartilage compared to the blood signal in the heart ventricle (cartilage [1]) | Muscle (M): signal compared to the level in the blood (cartilage [1]) | also measured
1 | 21 (GSGIVCKVCKIICGMQGKKVNICKAPIKCKCKKG) [compound 21] | 270% | 36% | 
2 | 22 (GSSEKDCIKHLQRCRENKDCCSKKCSRRGTNPEKRCR) [compound 22] | 337% | 27% | 
3 | 23 (GSVRIPVSCKHSGQCLKPCKDAGMRFGKCMNGKCDCTPK) [compound 23] | 497% | 26% | 
4 | 24 (GSGVPINVKCRGSRDCLDPCKKAGMRFGKCINSKCHCTP) [compound 24] | 624% | 34% | 
5 | 25 (GSAVCVYRTCDKDCKRRGYRSGKCINNACKCYPYG) [compound 25] | 358% | 24% | 
6 | 26 (GSISCTGSKQCYDPCKRKTGCPNAKCMNKSCKCYGCG) [compound 26] | 413% | 38% | 
7 | 27 (GSQVQTNVKCQGGSCASVCRREIGVAAGKCINGKCVCYRN) [compound 27] | 448% | 31% | 
8 | 28 (GSEVIRCSGSKQCYGPCKQQTGCTNSKCMNKVCKCYGCG) [compound 28] | 361% | 17% | 
9 | 29 (GSACKGVFDACTPGKNECCPNRVCSDKHKWCKWKL) [compound 29] | 243% | 26% | 
10 | 30 (GSQIYTSKECNGSSECYSHCEGITGKRSGKCINKKCYCYR) [compound 30] | 221% | 26% | 
11 | 31 (GSGCLEFWWKCNPNDDKCCRPKLKCSKLFKLCNFSFG) [compound 31] | 306% | 68% | 
12 | 33 (GSGCFGYKCDYYKGCCSGYVCSPTWKWCVRPGPGR) [compound 33] | 179% | 28% | 
13 | 196 (GSQKILSNRCNNSSECIPHCIRIFGTRAAKCINRKCYCYP) [compound 196] | 291% | 30% | 
14 | 198 (GSAVCNLKRCQLSCRSLGLLGKCIGDKCECVKHG) [compound 198] | 276% | 26% | 
15 | 433 (GSKCLPPGKPCYGATQKIPCCGVCSHNNCT) [compound 433] | 156% | 20% | 
16 | 483 (GSISIGIKCSPSIDLCEGQCRIRKYFTGYCSGDTCHCSG) [compound 483] | 67% | 24% | 
17 | 485 (METDTLLLWVLLLWVPGSTG) [compound 485] | 92% | 21% | 
18 | GSEVIRCSGSKQCYGPCKQQTGCTNSKCMNKVCKCYGCG [SEQ ID NO: 28] |  |  | Stability after heat incubation (HPLC) ([2]; 70 C for 1 hour): resistant to heat-induced degradation; Stability after heat incubation (HPLC) ([2]; 100 C for 1 hour): underwent various degrees of degradation
19 | GSGDCLPHLKRCKENNDCCSKKCKRRGANPEKRCR [SEQ ID NO: 205] |  |  | Cartilage homing (cartilage [3]): home to cartilage
20 | GSGDCLPHLRRCRENNDCCSRRCRRRGANPERRCR [SEQ ID NO: 200] |  |  | Cartilage homing (qualitative, WBA) ([4]; 100 nmol radiolabeled peptide): showed signal in cartilage and exhibited cartilage homing properties; Change of signal in IVD and joint cartilage between 3 and 24 hours ([4]; 100 nmol radiolabeled peptide): maintained or increased; Signal in the intervertebral disc (IVD), Average [4, 5]: 1809%; Signal in synovial joints as a percentage of signal in blood, Average [4, 6]: 4991%; Signal in the intervertebral disc (IVD), Average [4, 6]: 3542%
21 | GSKCLPPGKPCYGATQKIPCCGVCSHNNCT [SEQ ID NO: 433, reference compound] |  |  | Homing to cartilage (autoradiography, FIG. 11) (cartilage [1]; 24 hours after administration of 100 nmol): did not home to cartilage and was seen in the bone marrow
22 | GSQVQTNVRCQGGSCASVCRREIGVAAGRCINGRCVCYRN [SEQ ID NO: 114] |  |  | Cartilage homing (qualitative, WBA) ([4]; 100 nmol radiolabeled peptide): showed signal in cartilage and exhibited cartilage homing properties; Change of signal in IVD and joint cartilage between 3 and 24 hours ([4]; 100 nmol radiolabeled peptide): reduced residence time with a signal near the limit of detection by 24 hours; Signal in synovial joints as a percentage of signal in blood, Average [4, 5]: 1175%; Signal in the intervertebral disc (IVD), Average [4, 5]: 1075%; Signal in the intervertebral disc (IVD), Average [4, 6]: 191%
23 | GSSEKDCIKHLQRCRENKDCCSKKCSRRGTNPEKRCR [SEQ ID NO: 22] |  |  | Cartilage homing (cartilage [3]): home to cartilage
24 | GSSERDCIRHLQRCRENRDCCSRRCSRRGTNPERRCR [SEQ ID NO: 109] |  |  | Cartilage homing (qualitative, WBA) ([4]; 100 nmol radiolabeled peptide): showed signal in cartilage and exhibited cartilage homing properties; Change of signal in IVD and joint cartilage between 3 and 24 hours ([4]; 100 nmol radiolabeled peptide): maintained or increased; Rank of signal in cartilage among SEQ ID NO: 109, 200, 110, 114 ([4]; 100 nmol radiolabeled peptide): highest signal in cartilage; Signal in synovial joints as a percentage of signal in blood, Average [4, 5]: 5627%; Signal in the intervertebral disc (IVD), Average [4, 5]: 2758%; Signal in synovial joints as a percentage of signal in blood, Average [4, 6]: 5097%; Signal in the intervertebral disc (IVD), Average [4, 6]: 4367%
25 | GSVRIPVSCRHSGQCLRPCRDAGIVIRFGRCMNGRCDCTPR [SEQ ID NO: 110] |  |  | Cartilage homing (qualitative, WBA) ([4]; 100 nmol radiolabeled peptide): showed signal in cartilage and exhibited cartilage homing properties; Change of signal in IVD and joint cartilage between 3 and 24 hours ([4]; 100 nmol radiolabeled peptide): decreased; Signal in synovial joints as a percentage of signal in blood, Average [4, 5]: 3142%; Signal in the intervertebral disc (IVD), Average [4, 5]: 2374%; Signal in synovial joints as a percentage of signal in blood, Average [4, 6]: 981%; Signal in the intervertebral disc (IVD), Average [4, 6]: 1327%
26 | VFINVKCRGSPECLPKCKEAIGKSAGKCMNGKCKCYP [SEQ ID NO: 422] |  |  | Cartilage homing (cartilage [3]): homes to cartilage
